Positions count from the first letter of the chain named.

T1: FcRL6, overexpressed on 3T3 cells (UniProt Q6DN72 20-434, limits assumed)
T1 construct: whole, on cells
T1 sequence (looked up): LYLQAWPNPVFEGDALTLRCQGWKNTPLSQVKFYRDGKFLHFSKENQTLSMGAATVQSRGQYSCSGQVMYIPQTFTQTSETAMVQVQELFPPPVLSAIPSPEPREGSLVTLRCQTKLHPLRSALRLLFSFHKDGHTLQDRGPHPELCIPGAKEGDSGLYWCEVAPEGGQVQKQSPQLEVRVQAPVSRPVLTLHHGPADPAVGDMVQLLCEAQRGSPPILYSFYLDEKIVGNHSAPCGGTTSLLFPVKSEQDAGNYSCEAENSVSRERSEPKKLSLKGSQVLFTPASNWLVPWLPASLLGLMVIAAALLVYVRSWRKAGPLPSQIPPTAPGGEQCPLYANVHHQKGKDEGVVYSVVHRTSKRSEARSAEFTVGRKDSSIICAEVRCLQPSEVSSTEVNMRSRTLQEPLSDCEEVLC

T2: FcRL3, overexpressed on 3T3 cells (UniProt Q96P31 18-734, limits assumed)
T2 construct: whole, on cells
T2 sequence (looked up): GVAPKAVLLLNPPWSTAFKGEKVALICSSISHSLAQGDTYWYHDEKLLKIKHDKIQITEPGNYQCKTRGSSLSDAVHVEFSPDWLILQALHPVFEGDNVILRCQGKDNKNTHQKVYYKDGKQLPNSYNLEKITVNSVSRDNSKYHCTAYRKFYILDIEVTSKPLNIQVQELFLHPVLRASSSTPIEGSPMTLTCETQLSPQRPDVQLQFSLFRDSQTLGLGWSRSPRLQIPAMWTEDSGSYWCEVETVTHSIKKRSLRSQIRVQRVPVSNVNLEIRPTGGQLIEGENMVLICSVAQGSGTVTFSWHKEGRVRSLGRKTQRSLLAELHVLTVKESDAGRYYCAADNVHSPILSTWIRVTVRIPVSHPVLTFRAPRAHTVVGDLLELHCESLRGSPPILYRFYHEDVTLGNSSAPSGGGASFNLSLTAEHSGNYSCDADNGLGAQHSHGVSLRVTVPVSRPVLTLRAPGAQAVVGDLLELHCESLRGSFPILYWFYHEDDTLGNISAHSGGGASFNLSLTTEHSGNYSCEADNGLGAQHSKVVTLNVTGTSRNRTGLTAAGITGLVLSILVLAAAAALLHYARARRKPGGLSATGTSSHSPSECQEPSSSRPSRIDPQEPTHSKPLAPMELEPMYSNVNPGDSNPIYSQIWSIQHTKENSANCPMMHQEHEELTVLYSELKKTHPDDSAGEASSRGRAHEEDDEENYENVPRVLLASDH

T3: FcRL2, overexpressed on 3T3 cells (UniProt Q96LA5 20-508, limits assumed)
T3 construct: whole, on cells
T3 sequence (looked up): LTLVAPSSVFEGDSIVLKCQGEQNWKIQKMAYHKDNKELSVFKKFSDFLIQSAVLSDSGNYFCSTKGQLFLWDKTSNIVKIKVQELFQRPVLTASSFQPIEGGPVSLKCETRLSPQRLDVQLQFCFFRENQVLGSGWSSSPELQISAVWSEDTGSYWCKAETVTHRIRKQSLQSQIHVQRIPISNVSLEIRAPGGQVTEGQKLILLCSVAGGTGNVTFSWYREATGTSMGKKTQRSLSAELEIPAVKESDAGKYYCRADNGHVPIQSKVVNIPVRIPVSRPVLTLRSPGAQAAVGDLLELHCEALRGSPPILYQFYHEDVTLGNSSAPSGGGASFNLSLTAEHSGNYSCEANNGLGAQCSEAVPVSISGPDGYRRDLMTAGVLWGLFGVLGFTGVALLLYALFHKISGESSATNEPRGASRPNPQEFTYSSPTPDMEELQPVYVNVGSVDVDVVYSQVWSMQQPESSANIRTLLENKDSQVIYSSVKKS

T4: FcRL4, overexpressed on 3T3 cells (UniProt Q96PJ5 20-515, limits assumed)
T4 construct: whole, on cells
T4 sequence (looked up): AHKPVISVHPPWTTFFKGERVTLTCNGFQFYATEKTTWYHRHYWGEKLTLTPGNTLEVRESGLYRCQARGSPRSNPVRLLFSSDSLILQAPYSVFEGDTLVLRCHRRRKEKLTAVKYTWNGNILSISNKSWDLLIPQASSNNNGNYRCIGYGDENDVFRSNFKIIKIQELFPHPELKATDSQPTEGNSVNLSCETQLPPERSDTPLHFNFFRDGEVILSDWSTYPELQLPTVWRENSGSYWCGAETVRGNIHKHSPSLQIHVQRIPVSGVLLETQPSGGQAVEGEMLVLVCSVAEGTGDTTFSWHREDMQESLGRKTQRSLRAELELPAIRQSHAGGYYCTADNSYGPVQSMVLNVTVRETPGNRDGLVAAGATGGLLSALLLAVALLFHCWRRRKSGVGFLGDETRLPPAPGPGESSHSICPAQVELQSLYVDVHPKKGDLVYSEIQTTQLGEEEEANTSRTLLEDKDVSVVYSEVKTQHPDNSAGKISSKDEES

B1: ET200-097 (scFv)
scFv: LPVLTQPPSVSVSPGQTAIITCSGDKLGEKYVSWYQQKPGQSPVLVIDQDTRRPSGIPERFSGSNSGTTATLTISGTQAMDEADYYCQAWDRGVVFGGGTKLTVLGSRGGGGSGGGGSGGGGSLEMAEVQLVESGGDLVQPGRSLRLSCAASGFTFNDYAMHWVRQAPGKGLEWVSGISWSGNNIGYADSVKGRFTISRDNAKNSLYLQMNSLRAEDTALYYCAKDSIRYGITWGGFDYWGQGTLVTVSSTSGQAGQHHHHHHGAYPYDVPDYAS
notes: screened as phage clone; entry is VL-linker-VH-His tag-HA tag
B2: ET200-100 (scFv)
scFv: NFMLTQPHSVSESPGKTVTISCTRSSGSIASNFVQWYQQRPGSAPTPMIYEDNNRPPGVPDRFSASVDSSSNSASLTISGLKTEDEADYYCQSYDTSNVVFGGGTKLTVLGSRGGGGSGGGGSGGGGSLEMAEVQLVESGGGLVQPGGSLRLSCAASGFTFSSYEMNWVRQAPGKGLEWVSYISSSGSTIYYADSVKGRFTISRDNAKNSLYLQMNSLRAEDTAVYYCARWDYGMDVWGQGTTVTVSSTSGQAGQHHHHHHGAYPYDVPDYAS
notes: as for B1
B3: ET200-104 (scFv)
scFv: B2 scFv with F33Y, P47T, M48V, N54Q, P57S, A65G, V67I, T96S, L107V
notes: as for B1
B4: ET200-079 (scFv)
scFv: SYELTQPPSASGTPGQRVTISCSGSSSNIGSNYVYWYQQLPGTAPKLFIYRNNQRPSGVPDRFSGSKSGTSASLAISGLRSEDEADYYCAAWDDSLSGYLFGTGTKVTVLGSRGGGGSGGGGSGGGGSLEMAEVQLVESGGGLVQPGRSLRLSCAASGFTFDDYAMHWVRQAPGKGLEWVSGISWNSGSIGYADSVKGRFTISRDNAKNSLYLQMNSLRAEDTALYYCANGDSNYYYGMDVWGQGTTVTVSSTSGQAGQHHHHHHGAYPYDVPDYAS
notes: as for B1
B5: ET200-101 (scFv)
scFv: QAVLTQPPSASGAPGQRVTVSCSGSNSNIGSNYVNWYQQFPGTAPKLLMYSSSQRPSGVPDRFSGSKSGTSASLAISGLHSEDEADYYCATWDDSLNAWVFGGGTKLTVLGSRGGGGSGGGGSGGGGSLEMAEVQLVQSGAEVRKPGASVKVSCKTSGYTFTWYAIHWVRQAPGQRLEWMGWINAGSGNTKYSQKFQGRVTLTRDTSASTAYMELSSLRSDDTAVYYCARPNNYGSGGDVFDIWGQGTMVTVSSTSGQAGQHHHHHHGAYPYDVPDYAS
notes: as for B1
B6: ET200-006 (scFv)
scFv: SYVLTQPPSVSVAPGKTARITCGGNNIGSKSVHWYQQKPGQAPVVVIHYDSDRPSGIPERFSGSNSGNTATLTISRVEAGDEADYYCQVWDSSSDHPYVFGTGTKVTVLGSRGGGGSGGGGSGGGGSLEMAEVQLVQSGAEVKKPGASVKVSCKASGYTFTTYGISWVRQAPGQGLEWMGWINTYNGHTNYAQKLQGRATMTADTSTNTAYMELRSLRSDDTAVYYCARVIYGSGDYWGQGTLVTVSSTSGQAGQHHHHHHGAYPYDVPDYAS
notes: as for B1
B7: ET200-098 (scFv)
scFv: QPVLTQPPSVSKGLRQTATLTCTGNSNNVGNLGVAWLQQHQGHPPKLLSYRNNNRPSGISERLSASRSGNTASLTITGLQPEDEADYYCSAWDSSLSAWVFGGGTKLTVLGSRGGGGSGGGGSGGGGSLEMAEVQLVESGGVVVQPGGSLRLSCAASGFTFDDYAMHWVRQAPGKGLEWVSLINWDGGSTYYADSVKGRFTISRDNSKNSLYLQMNSLRAEDTALYYCAKGMGLRAFDYWGQGTLVTVSSTSGQAGQHHHHHHGAYPYDVPDYAS
notes: as for B1
B8: ET200-081 (scFv)
scFv: QSALTQPASVSGSPGQSITISCTGTSSDIGGYNYVSWYQQHPGKAPKLMIYDVSNRPSGVSNRFSGSKSGNTASLTISGLQAEDEADYYCISYTRTWNPYVFGSGTKVTVLGSRGGGGSGGGGSGGGGSLEMAEVQLVQSGGGVVQPGGSLRLSCAASGFTFDDYAMHWVRQAPGKGLEWVSLISGDGGSTYYADSVKGRFTISRDNSKNSLYLQMNSLRTEDTALYYCAKDRAAAGYYYYGMDVWGQGTTVTVSSTSGQAGQHHHHHHGAYPYDVPDYAS
notes: as for B1
B9: ET200-099 (scFv)
scFv: QSVLTQPPSASGTPGQRVTISCSGSSSNIGSNTVNWYQQLPGTAPKLLIYSNDQRPSGVPDRFSGSKSGTSASLAISGLQSEDEADYYCASWDDSLNGRYVFGTGTKVTVLGSRGGGGSGGGGSGGGGSLEMAQVQLVQSGAEVRKPGASVKVSCKTSGYTFSWYAIHWVRQAPGQRLEWMGWINAGNGNTKYSQKFQGRVSLTRDTSASTAYMELSSLRSDDTAVYYCARPDNYGSGGDVFDIWGQGTMVTVSSTSGQAGQHHHHHHGAYPYDVPDYAS
notes: as for B1

One assay deals with T1, FcRL6, overexpressed on 3T3 cells. Description: phage clone on 3T3-FcRL6 cells.
For B1, the binding result was “no binding”.
The same measure, in the same setting: the same measure for B2: “no binding”.
For the molecule B3, the binding result is listed as “no binding”.
Still for that read-out and setting: the same measure for B4: “no binding”; for B5: “no binding”; for B6: “no binding”.
For the molecule B7, the binding result is reported as “no binding”.
B8: the binding result is “no binding”.
Turning to B9, the binding result is on record as “no binding”.

In the next assay the target is T2, FcRL3, overexpressed on 3T3 cells. Description: phage clone on 3T3-FcRL3 cells.
With B1, the binding result was “no binding”.
On the same count and under the same terms, the value for B2 was “no binding”; that for B3 was “no binding”.
Still for that read-out and setting: the same measure for B4: “no binding”.
The same measure, in the same setting: the value for B5 was “no binding”; that for B6 was “no binding”.
Turning to B7, the binding result is listed as “no binding”.
For the molecule B8, the binding result is “no binding”.
On the same count and under the same terms, the same measure for B9: “no binding”.

In a further assay the target is T3, FcRL2, overexpressed on 3T3 cells. Description: phage clone on 3T3-FcRL2 cells.
B1: the binding result is “no binding”.
Same read-out and setting: the value for B2 was “no binding”.
For the molecule B3, the binding result was “no binding”.
Regarding B4, the binding result is given as “no binding”.
With B5, the binding result is “no binding”.
B6: the binding result is reported as “no binding”.
Consider B7, for which the binding result was “no binding”.
On to B8, for which the binding result is given as “no binding”.
On to B9, for which the binding result is given as “no binding”.

A further assay deals with SLAMF9 protein (UniProt Q96A28 19-236, limits assumed). Put plainly: phage clone on SLAMF9 protein.
Sequence of SLAMF9 protein (Q96A28 19-236 limits assumed): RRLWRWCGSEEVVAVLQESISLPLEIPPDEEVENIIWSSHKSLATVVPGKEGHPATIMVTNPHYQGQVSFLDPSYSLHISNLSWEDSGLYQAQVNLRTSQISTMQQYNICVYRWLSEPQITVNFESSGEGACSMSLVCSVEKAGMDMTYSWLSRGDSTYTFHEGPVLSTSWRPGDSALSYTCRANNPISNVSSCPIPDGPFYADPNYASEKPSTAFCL
In the case of B1, the binding result was “no binding”.
B2: the binding result is on record as “no binding”.
Turning to B3, the binding result is listed as “no binding”.
With B4, the binding result is given as “no binding”.
For the molecule B5, the binding result is given as “no binding”.
Regarding B6, the binding result is given as “no binding”.
The same measure, in the same setting: the value for B7 was “no binding”; that for B8 was “no binding”; that for B9 was “no binding”.

A further assay deals with T4, FcRL4, overexpressed on 3T3 cells. Put plainly: phage clone on 3T3-FcRL4 cells.
As for B1, the binding result is on record as “no binding”.
Still for that read-out and setting: the value for B2 was “no binding”; that for B3 was “no binding”.
For B4, the binding result is reported as “no binding”.
On to B5, for which the binding result was “no binding”.
As to B6, the binding result was “no binding”.
On the same count and under the same terms, the value for B7 was “no binding”; that for B8 was “no binding”; that for B9 was “no binding”.

(Values after US20210388081A1 (Memorial Sloan Kettering, published 2021).)
